The values below come from patent publication US20030219410A1 (TRANSGENE S A, published 2003).

For the experiment, the target named is T1, recombinant PML (wild-type 69 kDa isoform PML, PML3B) (UniProt P29590 1-560).
T1 construct: Untagged protein used in the co-transfection and co-localisation experiments; also called Promyelocytic Leukemia Protein
T1 sequence: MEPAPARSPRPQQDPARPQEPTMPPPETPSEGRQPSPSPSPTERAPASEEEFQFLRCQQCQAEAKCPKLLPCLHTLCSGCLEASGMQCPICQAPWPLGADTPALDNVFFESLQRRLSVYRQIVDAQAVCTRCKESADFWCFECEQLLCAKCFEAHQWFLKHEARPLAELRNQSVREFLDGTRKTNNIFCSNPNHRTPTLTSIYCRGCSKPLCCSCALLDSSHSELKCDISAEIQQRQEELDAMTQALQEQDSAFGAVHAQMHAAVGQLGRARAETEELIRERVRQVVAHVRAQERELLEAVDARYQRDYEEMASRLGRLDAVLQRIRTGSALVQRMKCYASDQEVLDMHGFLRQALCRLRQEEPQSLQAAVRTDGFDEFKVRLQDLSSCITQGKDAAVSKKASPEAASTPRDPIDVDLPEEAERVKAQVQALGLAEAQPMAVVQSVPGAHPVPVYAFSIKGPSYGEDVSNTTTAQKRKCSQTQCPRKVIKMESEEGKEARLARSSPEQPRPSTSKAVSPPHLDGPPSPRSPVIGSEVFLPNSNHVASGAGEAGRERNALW
The experiment in a line: co-localisation by immunostaining and EM in transiently co-transfected cells.

B1: recombinant wt pIX protein (other)
chain: MSTNSFDGSIVSSYLTTRMPPWAGVRQNVMGSSIDGRPVLPANSTTLTYETVSGTPLETAASAAASAAAATARGIVTDFAFLSPLASSAASRSSARDDKLTALLAQLDSLTRELNVVSQQLLDLRQQVSALKASSPPNAV
notes: Untagged protein used in the co-transfection and co-localisation experiments
For the molecule B1, the binding result is reported as “binds”.
